# Measured values taken from patent US20140242093A1, “METHODS AND COMPOSITIONS FOR MODULATING THE INNATE IMMUNE RESPONSE AND/OR MYOGENESIS IN A MAMMALIAN SUBJECT” (FRED HUTCHINSON CANCER RESEARCH CENTER, priority 2011, published 2014).
# Tested on: control human primary myoblasts
# Experiment: Expression microarray of primary myoblasts transduced with lentivirus carrying DUX4-fl, DUX4-s or GFP
# Experimental: Primary human myoblasts were collected and cultured as previously described (Snider et al., 2010). Primary myoblasts were maintained at or below 70% confluency for proliferation. For differentiation, cells were allowed to reach 95-100% confluency in growth medium. Once confluency was reached, the cells were changed to differentiation medium (F10 media supplemented with 1% horse serum, 10 μg/mL insulin, and 10 μg/mL transferrin, penicillin/streptomycin) and maintained for 4 days. Human RD cells were grown in DMEM in 10% bovine calf serum (Hyclone) and penicillin/streptomycin. The primary myoblasts were transduced with lentivirus carrying DUX-fl, DUX4- or GFP (MOI=15).
# Expression microarrays were performed on the transduced cells at 24 hours after transduction as follows. […] Samples were analyzed by Illumina Human Whole Genome microarrays. Probe intensities were corrected, normalized, and summarized by the Lumi package of Bioconductor (Du et al., 2008). Differentially expressed genes were identified by the LIMMA package of Bioconductor (Wettenhall and Smyth, 2004). Gene set enrichment analysis (GSEA) was performed using the Bioconductor GOstats package (Falcon and Gentleman, 2007).
molecule,measurement,setting,value
"DUX4-s: short splice form of DUX4 (SEQ ID NO:112), keeps the double-homeobox domains, lacks the C-terminal activation domain (protein, listed as Homo sapiens) MALPTPSDSTLPAEARGRGRRRRLVWTPSQSEALRACFERNPYPGIATRERLAQAIGIPEPRVQIWFQNERSRQLRQHRRESRPWPGRRGPPEGRRKRTAVTGSQTALLLRAFEKDRFPGIAAREELARETGLPESRIQIWFQNRRARHPGQGGRAPAQV",PRAMEF19 expression fc,Refseq NM_001099790.1,−0.03732
same,PRAMEF20 expression fc,Refseq NM_001099852.1,−0.003632
same,PRAMEF14 expression fc,Refseq NM_001099854.1,−0.1694
same,PRAMEF21 expression fc,Refseq NM_001100114.1,−0.06827
same,LOC729384 expression fc,Refseq NM_001105522.1,−0.07068
same,KHDC1L expression fc,Refseq NM_001126063.2,−0.07068
same,CSAG3 expression fc,Refseq NM_001129826.1,0.09074
same,LOC399940 expression fc,Refseq NM_001136118.1,−0.03724
same,LOC440563 expression fc,Refseq NM_001136561.1,0.07051
same,FAM90A7 expression fc,Refseq NM_001136572.1,−0.2137
same,CYCSL1 expression fc,Refseq NR_001561.1,0.3733
same,MGC10997 expression fc,Refseq NR_001565.1,−0.2936
same,FTHL3 expression fc,"Refseq NR_002201.1, cultured human skeletal muscle",0.4498
same,FTHL11 expression fc,"Refseq NR_002204.1, cultured human skeletal muscle",0.6004
same,FTHL12 expression fc,"Refseq NR_002205.1, cultured human skeletal muscle",0.3871
same,RPPH1 expression fc,Refseq NR_002312.1,0.2269
same,RFPL1S expression fc,Refseq NR_002727.1,0.1147
same,SNORD56 expression fc,Refseq NR_002739.1,−0.1657
same,fc of TRIM78P (expression array),Refseq NR_002777.2,1.698
same,HNRPA1L-2 expression fc,Refseq NR_002944.2,−0.898
same,RMRP expression fc,Refseq NR_003051.2,0.07334
same,fc of LOC400759 (expression array),Refseq NR_003133.1,1.032
same,HNRPDL expression fc,Refseq NR_003249.1,0.01689
same,SDHALP1 expression fc,Refseq NR_003264.1,0.1225
same,RN5S9 expression fc,Refseq NR_023371.1,0.7616
same,KIAA0114 expression fc,Refseq NR_024031.1,−0.316
same,NCRNA00092 expression fc,Refseq NR_024129.1,−0.1123
same,MIR503 expression fc,Refseq NR_030228.1,−0.1361
same,MIR2278 expression fc,Refseq NR_031755.1,0.09768
same,USP41 fc,Refseq XM_036729.5,0.5246
same,TRIM64 expression fc,Refseq XM_061890.11,−0.174
same,LOC136157 expression fc,Refseq XM_069743.3,0.05271
same,LOC196120 expression fc,Refseq XM_114987.3,0.05191
same,LOC646066 expression fc,Refseq XM_116384.2,−0.02686
same,LOC284428 expression fc,Refseq XM_208203.5,−0.09941
same,LOC285697 expression fc,Refseq XM_210642.1,−0.06561
same,LOC342934 expression fc,Refseq XM_292724.5,−0.06005
same,LOC340096 expression fc,Refseq XM_293943.2,−0.07893
same,LOC389633 expression fc,Refseq XM_372030.4,−0.0852
same,LOC390031 expression fc,Refseq XM_372343.1,−0.1097
same,LOC390530 fc,Refseq XM_372543.2,0.1083
same,LOC391045 expression fc,Refseq XM_372780.3,0.3531
same,LOC391092 expression fc,Refseq XM_372792.2,0.1107
same,LOC391742 expression fc,Refseq XM_373056.1,0.1596
same,LOC391747 expression fc,Refseq XM_373059.2,−0.1049
same,LOC391761 expression fc,Refseq XM_373073.2,−0.05894
same,LOC391764 expression fc,Refseq XM_373076.3,0.1211
same,LOC391766 expression fc,Refseq XM_373077.2,−0.05537
same,LOC391767 expression fc,Refseq XM_373078.1,0.05542
same,LOC399937 expression fc,Refseq XM_374917.3,0.0007914
same,LOC399939 expression fc,Refseq XM_374919.3,−0.06731
same,LOC401860 expression fc,Refseq XM_377445.3,−0.1342
same,LOC402199 expression fc,Refseq XM_377875.2,0.0817
same,LOC646103 expression fc,Refseq XM_377879.3,−0.1387
same,LOC402207 expression fc,Refseq XM_377884.2,−0.01834
same,LOC440040 expression fc,Refseq XM_495873.4,0.08128
same,FAM90A9 expression fc,Refseq XM_496956.4,0.01693
same,FAM90A12 expression fc,Refseq XM_496961.3,0.04824
same,LOC441584 expression fc,Refseq XM_497258.1,−0.1442
same,LOC441019 expression fc,"Refseq XM_498969.2, cultured human skeletal muscle",0.2625
same,PEG10 expression fc,Refseq XM_499343.2,−0.09718
same,LOC642362 expression fc,Refseq XM_925891.1,−0.0147
same,LOC642538 expression fc,Refseq XM_926027.2,0.1258
same,LOC653111 expression fc,Refseq XM_926073.2,−0.09966
same,LOC642843 expression fc,Refseq XM_926241.2,−0.05848
same,LOC653192 expression fc,Refseq XM_926437.2,−0.03932
same,LOC653194 expression fc,Refseq XM_926449.1,−0.01762
same,LOC643731 expression fc,Refseq XM_927019.1,−0.0009314
same,LOC653506 fc,Refseq XM_927769.1,0.01748
same,LOC645137 expression fc,Refseq XM_928167.2,−0.1524
same,fc of LOC653583 (expression array),Refseq XM_928224.2,0.1005
same,LOC645373 expression fc,Refseq XM_928412.1,−0.06602
same,LOC645558 expression fc,Refseq XM_928577.2,−0.04868
same,LOC645669 expression fc,Refseq XM_928680.1,0.08754
same,LOC653656 expression fc,Refseq XM_928688.3,−0.1419
same,LOC653657 expression fc,Refseq XM_928697.2,0.186
same,LOC646698 expression fc,Refseq XM_929644.2,0.1105
same,LOC646754 expression fc,Refseq XM_929704.2,−0.1486
same,LOC646914 expression fc,Refseq XM_929877.1,−0.02473
same,fc of LOC338758 (expression array),Refseq XM_931359.2,−0.07166
same,LOC644739 fc,Refseq XM_933679.1,−0.07399
same,LOC642127 expression fc,Refseq XM_936272.2,0.04199
same,LOC642219 expression fc,Refseq XM_936370.2,4.39E−05
same,LOC285299 expression fc,Refseq XM_936463.2,−0.03458
same,fc of BEXL1 (expression array),Refseq XM_936467.2,−0.1528
same,LOC653978 expression fc,Refseq XM_937424.1,0.1928
same,LOC646508 expression fc,Refseq XM_937570.1,−0.04201
same,LOC648533 expression fc,Refseq XM_937587.1,0.03736
same,LOC342933 expression fc,Refseq XM_938208.2,−0.1021
same,PRAMEF17 expression fc,Refseq XM_938420.2,0.1008
same,fc of LOC649425 (expression array),Refseq XM_938508.1,2.539
same,LOC649563 expression fc,Refseq XM_938635.2,−0.06114
same,LOC650167 expression fc,Refseq XM_939249.1,0.04811
same,LOC654101 expression fc,Refseq XM_939354.1,0.09479
same,MGC61598 expression fc,Refseq XM_939432.1,0.09581
same,LOC651308 expression fc,Refseq XM_940443.1,0.03906
same,ZC3H5 fc,Refseq XM_940903.2,0.09652
same,LOC651816 expression fc,Refseq XM_941060.1,−0.5388
same,LOC652080 expression fc,Refseq XM_941404.1,0.1734
same,LOC652349 expression fc,Refseq XM_941777.1,0.01696
same,LOC652433 expression fc,Refseq XM_941875.1,−0.03197
same,LOC651390 expression fc,Refseq XM_942401.1,−0.07746
same,LOC727846 expression fc,Refseq XM_001126140.1,0.003662
same,LOC730278 fc,Refseq XM_001126471.1,0.1899
same,PARP10 expression fc,"Refseq XM_001127571.1, cultured human skeletal muscle",0.5424
same,fc of LOC730996 (expression array),Refseq XM_001128017.1,1.049
same,LOC342900 expression fc,Refseq XM_001129035.1,0.1315
same,LOC729368 expression fc,Refseq XM_001130065.2,−0.06002
same,LOC729458 expression fc,Refseq XM_001130308.2,0.008126
same,LOC729694 expression fc,Refseq XM_001131061.1,−0.1655
same,LOC729698 expression fc,Refseq XM_001131072.1,−0.06572
same,LOC729700 expression fc,Refseq XM_001131081.1,−0.184
same,LOC729706 expression fc,Refseq XM_001131091.1,−0.01626
same,LOC729724 expression fc,Refseq XM_001131132.1,0.1112
same,LOC729731 expression fc,Refseq XM_001131140.1,0.09881
same,LOC728450 expression fc,Refseq XM_001131473.2,0.1347
same,RFNG fc,Refseq XM_001132711.1,−0.2183
same,LOC732416 expression fc,Refseq XM_001133386.1,0.05578
same,THOC4 expression fc,Refseq XM_001134346.1,−0.1896
same,PRAMEF15 expression fc,Refseq XM_001713659.1,−0.05867
same,LOC100131392 expression fc,Refseq XM_001713681.1,−0.007104
same,LOC100132564 expression fc,Refseq XM_001713808.1,0.401
same,LOC391769 expression fc,Refseq XM_001713901.1,0.152
same,PRAMEF13 expression fc,Refseq XM_001713933.1,0.1179
same,PRAMEF11 expression fc,Refseq XM_001714028.1,0.1217
same,fc of LOC285296 (expression array),Refseq XM_001714301.1,0.8246
same,LOC100133588 expression fc,Refseq XM_001714755.1,0.03978
same,CTGLF7 expression fc,Refseq XM_001714786.1,−0.2949
same,LOC100129630 expression fc,Refseq XM_001714940.1,−0.1038
same,LOC391763 expression fc,Refseq XM_001715080.1,0.09287
same,LOC642446 expression fc,Refseq XM_001717781.1,0.1879
same,LOC100133446 expression fc,Refseq XM_001717965.1,0.1161
same,LOC100129165 fc,Refseq XM_001718314.1,0.2245
same,LOC643336 expression fc,Refseq XM_001718563.1,1.023
same,LOC100129053 expression fc,Refseq XM_001718702.1,0.09951
same,LOC100130652 expression fc,Refseq XM_001719052.1,0.105
same,RFPL4A expression fc,Refseq XM_001719234.1,−0.09032
same,LOC728809 fc,Refseq XM_001719546.1,0.02213
same,LOC100134199 expression fc,Refseq XM_001719549.1,0.03252
